± gives the uncertainty stated by the source.
Test: self-splicing fitness, log relative to wild type (ln ratio); higher = more splicing; Tetrahymena group I intron in knt gene, E. coli kanamycin selection, DiMSum; sequences stand for … in CUCUCU…GGAGGGAAAAGUUAUCAGGCAUGCACCUGGUAGCUAGUCUUUAAACCAAUAGAUUGCAUCGGUUUAAAAGGCAAGACCGUCAAAUUGCGGGAAAGGGGUCAACAGCCGUUCAGUACCAAGUCUCAGGGGAAACUUUGAGAUGGCCUUGCAAAGGGUAUGGUAAUAAGCUGACGGACAUGGUCCUAACCACGCAGCCAAGUCCUAAGUCAACAGAUCUUCUGUUGAUAUGGAUGCAGUUCACAGACUAAAUGUCGGUCGGGGAAGAUGUAUUCUUCUCAUAAGAUAUAGUCGGACCUCUCCUUAAUGGGAGCUAGCGGAUGAAGUGAUGCAACACUGGAGCCGCUGGGAACUAAUUUGUAUGCGAAAGUAUAUUGAUUAGUUUUGGAGUACUCGUGGUCG
Outline: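 The eight P1ex-region nucleotides of an intron in the knt kanamycin-resistance gene on pET-22b(+) were all randomised and the library put into E. coli BL21(DE3). Six replicate transformations were grown overnight at 37°C or 30°C on LB agar with or without 25 μg/mL kanamycin, together with 100 μg/mL carbenicillin, 50 μM IPTG and 0.2% rhamnose. Colonies were pooled and amplicon-sequenced on an Illumina HiSeq 2500. Fitness from DiMSum is the error-weighted combination of wild-type-normalised replicate fold changes, kanamycin over none.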

Sequence	self-splicing fitness (ln) (30 °C)	self-splicing fitness (ln) (37 °C)
GUCUAGCAAUAUUACGCUCU	-0.178 ± 0.13	1.05 ± 0.15
UCUUAGCAAUAUUACGCGAC	–	-3.07 ± 0.32
GCGUAGCAAUAUUACGGGGU	-3.95 ± 0.19	-1.86 ± 0.12
UAAUAGCAAUAUUACGGGUA	-1.9 ± 0.17	-0.433 ± 0.14
CAAGAGCAAUAUUACGCUAC	-2.4 ± 0.26	-1.66 ± 0.38
AGCUAGCAAUAUUACGCCCA	-1.5 ± 0.21	-0.441 ± 0.35
GAGAAGCAAUAUUACGUUCG	-1.38 ± 0.072	-0.765 ± 0.095
AUGCAGCAAUAUUACGCUCU	-1.34 ± 0.084	0.22 ± 0.084
AAACAGCAAUAUUACGCAUG	-2.12 ± 0.077	-1.58 ± 0.089
AGACAGCAAUAUUACGGCCA	-1.28 ± 0.11	-0.142 ± 0.11
GACUAGCAAUAUUACGUGAU	-1.83 ± 0.078	-0.383 ± 0.087
UCGGAGCAAUAUUACGUCGA	-0.356 ± 0.42	-0.949 ± 0.3
GGGCAGCAAUAUUACGUGAG	-0.483 ± 0.085	-0.435 ± 0.1
ACGAAGCAAUAUUACGACAU	-0.681 ± 0.011	-0.109 ± 0.032
AUAAAGCAAUAUUACGGCUG	0.334 ± 0.069	0.483 ± 0.1
UAACAGCAAUAUUACGCAGA	-2.78 ± 0.14	-1.47 ± 0.087
UCAAAGCAAUAUUACGGGAC	-1.98 ± 0.2	-1.75 ± 0.25
CUUUAGCAAUAUUACGUCGA	–	-1.96 ± 0.48
UUGGAGCAAUAUUACGGAGA	-2.59 ± 0.37	-1.08 ± 0.23
AGACAGCAAUAUUACGCAGG	-3.5 ± 0.2	-1.25 ± 0.16
UCACAGCAAUAUUACGCCCC	-0.433 ± 0.3	-1.51 ± 0.41
UAAUAGCAAUAUUACGGUCG	-0.872 ± 0.1	0.313 ± 0.11
GCGAAGCAAUAUUACGUAUU	-3.7 ± 0.15	-0.392 ± 0.093
AAUCAGCAAUAUUACGACAA	-0.758 ± 0.12	0.189 ± 0.14
AGCAAGCAAUAUUACGAACA	-0.765 ± 0.099	-0.407 ± 0.12

Sequence	self-splicing fitness (ln) (30 °C)	self-splicing fitness (ln) (37 °C)
GGGGAGCAAUAUUACGUGCU	-1.81 ± 0.16	-2.14 ± 0.33
CCUUAGCAAUAUUACGGUGG	-2.71 ± 0.15	-1.36 ± 0.15
CCGAAGCAAUAUUACGAGGG	-3 ± 0.18	-1.73 ± 0.22
UAGAAGCAAUAUUACGAACA	-0.322 ± 0.16	-0.859 ± 0.17
UGUCAGCAAUAUUACGUACU	-0.114 ± 0.058	0.497 ± 0.078
GGCCAGCAAUAUUACGUAGU	-2.25 ± 0.12	-2.13 ± 0.12
UGGAAGCAAUAUUACGAUUA	-1.1 ± 0.11	0.012 ± 0.12
CGUUAGCAAUAUUACGGUCC	–	-1.08 ± 0.48
UCGUAGCAAUAUUACGCUGC	–	-2.48 ± 0.36
AAAGAGCAAUAUUACGGGGU	-2.63 ± 0.21	-2.18 ± 0.24
CACCAGCAAUAUUACGCUAG	-1.49 ± 0.068	-0.153 ± 0.079
UAACAGCAAUAUUACGCUUU	-3.43 ± 0.14	-1.82 ± 0.13
AUCAAGCAAUAUUACGCGAA	-0.924 ± 0.094	-1.22 ± 0.12
AGAGAGCAAUAUUACGGCGA	-2.95 ± 0.39	-1.82 ± 0.39
AGUCAGCAAUAUUACGAGUU	-1.9 ± 0.092	-0.799 ± 0.077
AAACAGCAAUAUUACGUAAC	-4.39 ± 0.24	-1.97 ± 0.14
AUGCAGCAAUAUUACGUUUG	-3.45 ± 0.17	-1.82 ± 0.17
AUGAAGCAAUAUUACGCGCC	-0.426 ± 0.085	-0.127 ± 0.11
UCCUAGCAAUAUUACGCAAU	-2.64 ± 0.21	-2.05 ± 0.25
CAGGAGCAAUAUUACGCGGG	-0.771 ± 0.15	-1.84 ± 0.14
GCAUAGCAAUAUUACGCUUA	-1.6 ± 0.14	-1.18 ± 0.1
UGCGAGCAAUAUUACGAUAC	-2.68 ± 0.28	-1.45 ± 0.32
UUGGAGCAAUAUUACGGCGG	-2.99 ± 0.33	-1.88 ± 0.22
UAUCAGCAAUAUUACGAGAU	-3.27 ± 0.16	-2.21 ± 0.23
